In patent US20260258115A1 (MAPP BIOPHARMACEUTICAL, published 2026):

Columns and labels:
[1] = molecular target: RSV F on RSV-A2 virus (Respiratory Syncytial Virus (RSV-A2), UniProt P03420 26-574); test: cell-based or functional assay
[2] = molecular target: RSV prefusion F (preF), DS-Cav1 (Respiratory Syncytial Virus, UniProt P03420 26-513); test: BLI, IgG on anti-human IgG sensor, 100 nM antigen, 1:1 fit
[3] = molecular target: RSV postfusion F (postF), F ΔFP (Respiratory Syncytial Virus, UniProt P03420 26-513); test: as above

| Binder | Neutralization IC50 (RSV subtype A) [1] [µg/mL] | Kd [2] [nM] | Kd [3] [nM] |
| --- | --- | --- | --- |
| ADI-41468 (antibody, V domains shown, also called Ab 752; Antibody Number 752) VH: QVQLQQWGAGPLKSSETLSLTCEVYGGPFSGYSWSWIRQPPGKGLEWIGEINHSGSTNYNPSLKSRVSFSVDTSKNQFSLKLSSVTAADTAVYYCARGAGFCTSTSCPPGLYYYYGMDVWGHGTTVTVSS VL: SYELTQPLSVSVALGQTARITCGGNNIESKNVHWYQQMPGLAPVMVIYRDTNRPSGIPERFSGSNSGNTATLTISRAQAGDEADYYCQVWDSGTVIFGGGTKLTVL | > 25 | 0.716 | 0.344 |
| ADI-41485 (antibody, V domains shown) VH: EVQLLESGPGLVRPSETLSLTCTVSGGSLDSGPHYWNWIRQPPGKGLEWIGYIYYSVSTNYNPSLKSRVTISMDTSKNQFSLNLTSVTAADTAVYYCASFQLIYGPQIWGQGKKVTVSS VL: DIVLTQSPSSVSASVGDRVTITCRASQAISSWLIWSQHKPGKAPKVLIYAASSLQSGVPSRFSGSGSGTDFTLTISSLQPEDFATYYCQQANNFPLTFGGGTKVEIK | > 25 | 3.01 | 1.02 |
| ADI-41469 (antibody, V domains shown) VH: EVQLVESGGGVVQPGRSLRLSCAASGFTFSSYGMHWVRQAPGKGLEWVAVISYDGSFIKYADSMMGRFTISRDNSKNTLYLQMSSLRPEDTATYYCAKDALIPEYWGQGTLVTVSS VL: QPVLTQPASVSGSPGQSITISCTGTSSDVGGYNYVSWYQKHPDKAPRVIIYEVSNRPSGVSNRFSGSKSGNTASLTISGLQAEDEADYYCCSYTSTSGVVFGGGTKLTVL | 0.35 | 0.28 | 0.345 |
| ADI-41472 (antibody, V domains shown) VH: QVQLVQSGAEVKKPGSSVKVSCKASGGTFSSYAISWVRQAPGQGLEWMGRIIPVLDITNYAQKFQGRVTIMADKSTSTAYMELSSLRSEDTAIYYCARETSNFYFYYNAMDVWGQGTTVTVSS VL: QPVLTQPPSASGSPGQSVTISCTGTSSDVGGDNYVSWYQQHPGKAPKLLIYEVSKRPSGVPDRFSGSRSGHTASLTVSGLQAEDEADYYCSSYAGRNNLGVFGGGTKLTVL | 0.27 | 3.05 | 1.06 |
| ADI-41473 (antibody, V domains shown) VH: QVQLVQSGPGLVKPSQTLSLTCAISGDSVSSNSAAWSWIRQSPSRGLEWLGRTYYRSKWYYDHAVSVEGRITINADTSKNHFSLQLNSVTPEDTAVYYCARDPDSGNYFHYYGMDVWGQGTTVTVSS VL: ETTLTQSPATLSLSPGERATLSCRTSQSVSSYLAWYQQKPGQAPRLLIYDASRRATGIPARFSGSGSGTHFTLTITSLEPEDFAVYYCQQRSKWPPYSFGQGTKVDIK | > 25 | 12.7 | 31.2 |
| ADI-41475 (antibody, V domains shown) VH: QVQLQESGPGLVKPSQTLSLTCAISGDSVSSNSAAWNWIRQSPSRGLEWLGRTYYRSKWWTDYAVSVKSRITINPDTSKNQFSLQLNSVTPEDTAVYYCARDPDSGNYFHYYGMDVWGQGTTVTVSS VL: ETTLTQSPATLSLSPGERATLSCRASQSASSYLAWYQQKPGQAPRLLIYDASKRATGIPARFSGSGSGTDFSLTISSLEPEDFAVYYCQLRSKWPPYTFGQGTKVEIK | > 25 | 12.2 | 25.5 |
| ADI-41481 (antibody, V domains shown, also called Ab 763; Antibody Number 763) VH: QVQLVESGPGLVKPSETLSLACSVSGVSISTYYWTWIRQPPGKGLEWIGYISYSGSTNYNPSLKSRVTISADTSKNQFSLRLNSVTAADTAVYYCARTYYDFWSTYYGEFDHWGHGTLVTVSS VL: SYELTQPLSVSVALGQTARITCGGNNIESKNVHWYQQKPGQAPVVVMYRDTNRPSGIPERFSGSNSGNTATLTISRAQAGDEADYYCQVWDSGTAGVVFGGGTKVTVL | 0.68 | 2.09 | 0.443 |
| ADI-41484 (antibody, V domains shown) VH: EVQLVESGPGLVKPSEALSLTCTVSGASISSYYWTWIRQSPRKGLEWIGYIYHTGRTNYNPSLKRRVTMSVDWSKNQFSLTLSSVTAADTAVYYCARLKVVPAALESAILEHHFGLDVWGQGTTVTVSS VL: DIVMTQTPSTLSASIGDRVTLTCRASQSINRWLAWYQQKPGKAPKLLIYKASTLESGVPSRFSGSGSGTEFTLTISGLQPDDFATYYCQQYNNFPYTFGPGTKVDIK | > 25 | 3.44 | 0.782 |
| ADI-41482 (antibody, V domains shown) VH: QVQLVQSGAEVKKPGSSVKVSCKASGGTFGSYTINWVRQAPGQGLEWMGGIIPIFGATNYAQNFQGRVSITADKSTATAYMDLISLRSEDTAVYYCARLGRSSPLNSCTTTSCYFWGRGMDVWGQGTTVTVSS VL: QSVLIQPASVSGSPGQSITISCTGTISDVGIYNYVSWYQQHPGKAPKLIISDVSDRPSGVSNRFSGSKSGITASLTITGLQAEDEADYYCSSYSSSSTLYVFGTGTKLTVL | > 25 | 3.37 | 1.49 |
| ADI-41464 (antibody, V domains shown) VH: QVQLVESGPGLVRPSGTLSLTCTVSGDSVNSYRWSWIRQSPGKGLEWIGYISYSGETNYNPSLKSRVSISVGTSRYQFFLKLSSVTAADTATYYCARDKTTIFGVSHYYFGVDVWGQGTTVTVSS VL: DIVMTQTPLSLPVTPGEPASISCRSSQSLLKSDGYNSLDWYLQRPGQSPQLLIYLGSNRASGVPARFSGSGSGTDFTLKISRVEAEDVGVYYCMQALQTPFTFGPGTKVEIK | > 25 | 1.91 | 0.313 |
| ADI-41480 (antibody, V domains shown) VH: EVQLLESGPGLVRPSGTLSLTCTVSGDSISGSNWWAWVRQPPGRRLEWIGEIYYRGATDYNSSLKSRVIISVDNSKNQFSLNLRSVTAADTAIYYCARVEKFATSGYYISYFDYWGQGTLVTVSS VL: DIRVTQSPSSLSASVGDRVTITCRASQSISTYLNWYQHNPGKAPKLLIYAASSLQSGVPSRFSGSGSGTHFTLTISSLQPADFSTYYCQQSYSSPWTFGQGTKVEIK | > 25 | 4.34 | 0.703 |
| ADI-41471 (antibody, V domains shown) VH: QVQLVQSGADVKKPGSSVKISCKASGGSFITNSLSWVRRAPGQGLEWMGGIIPVSGTTTYAQKFLGRVTFTADESTSTAYMELNSLRSEDTAVYYCARFLGTPYPNVHYGMDVWGQGTTVTVSS VL: DIRVTQSPSSLSASVGARVTITCRASQSISTYLNWYQEKPGKAPKLLIYAASSLQRGVPSRFSGSGSETTFTLTISSLQPEDFATYYCQQSYTAAYNFGQGTKVEIK | > 25 | 3.75 | 0.761 |
| ADI-41474 (antibody, V domains shown, also called Ab 757; Antibody Number 757) VH: QVQLVQSGAEVKRPGASVKVSCKISGYTFTSHYIHWLRQAPGQGLEWMGWINPNTGDTKYEQKFQGRVTMTRDTSLSTAYMELRRLRSDDTAVYYCARDSFYAANGYYFVWFDPWGQGALVTVSS VL: DIQMTQSPTSLSASVGDRVTITCRASQSISSYLNWYQQKPGKAPRFLIYAASSLQSGVPSRFRGSGSGTDFTLTISSLQPEDFATYYCQQSYSSPYTFGQGTKVEIK | 0.26 | 17.8 | 34.8 |
| ADI-41466 (antibody, V domains shown, also called Ab 750; Antibody Number 750) VH: QVQLVQSGAEVKKPGASVKVSCKASGYTFNFYYMHWVRQAPGQGLEWMGWINPKSGGTSYAQKFQGRVIMTGDTSISTTYMELSRLRSDDTAVYYCARADTGLELDVWGQGTTVTVSS VL: QSALIQPASVSGSPGQSITISCTGTSSDVGGYNYVSWYQQHPGKAPKLILYDVSKRPSGVSNRFSGSKSGNTASLTISGLQAEDESDYFCSSYTRSNTVVFGGGTKVTVL | > 25 | 2.05 | 0.383 |
